According to US20240002547A1, “T[…]-TARGETING CONSTRUCTS AND USES THEREOF” (AEBI LTD., priority 2016, published 2024):

Biological target: human EGFR on A431 and MCF-7 cells (human), P00533
Test: cell-based or functional assay

B1: E13.3 (peptide)
peptide: CHPGDKQEDPNCLQADK
modifications: not checked
B1 was tested, and the IC50 of inhibition of EGFR autophosphorylation in A431 cells was 2000 nM and the Normalized Percent of EGFR autophosphorylation inhibition was 99.4%.
